Measurements from publication PMC9758051.

What was measured:
[1] = molecular target: turkey β1-adrenergic receptor, engineered thermostabilised construct (modified β44-m23) (turkey (M. gallopavo)) (UniProt P07700); assay: native MS; tβ1AR 5 μM with mini-Gs 6 μM, orciprenaline 2 at 250 μM
[2] = molecular target: turkey β1-adrenergic receptor, engineered thermostabilised construct (modified β44-m23) (turkey (M. gallopavo)) (UniProt P07700); assay: native MS; tβ1AR 5 μM with mini-Gs 6 μM, isoprenaline derivative 5 at 250 μM
[3] = molecular target: turkey β1-adrenergic receptor, engineered thermostabilised construct (modified β44-m23) (turkey (M. gallopavo)) (UniProt P07700); assay: native MS; tβ1AR 5 μM with mini-Gs 6 μM, 1-phenyl-2[(propan-2-yl)amino]ethan-1-ol 3 at 250 μM
[4] = molecular target: tβ1AR variant with alanine mutations on TM5 (E233A and E236A) (turkey (M. gallopavo)) (UniProt P07700); assay: native MS; tβ1AR with mini-Gα at 1:1.2 molar ratio, 4 °C, at least 20 min, coupling buffer (10 mM HEPES, 10 mM Tris-HCl pH 7.4, 200 mM NaCl, 1 mM MgCl2, 5 mM GDP, 0.05% DDM) with isoprenaline 1 at 25 μM
endogenous metal (Zn2+) = assay: mass spectrometry (MS) of receptor-mini-Gs complex; settings: metal-binding read on the tβ1AR-mini-Gs complex; mean ± s.d. from three independent experiments; read off a plot

| Substance | percent reduction of mini-Gs coupling against isoprenaline 1 [1] | percent attenuation of mini-Gs coupling against isoprenaline 1 [2] | percent attenuation of mini-Gs coupling against isoprenaline 1 [3] | percent attenuation of coupling against wild-type tβ1AR [4] | other: inhibition of metal-binding (%) (endogenous metal (Zn2+)) |
| --- | --- | --- | --- | --- | --- |
| mini-Gs construct R414, engineered minimal Gα subunit (engineered Gαs) | 60% | 75% | 90% | 21.2% |  |
| turkey β1-adrenergic receptor, engineered thermostabilised construct (modified β44-m23) (from UniProt P07700) E285A; H286A |  |  |  |  | 11% |
